Reference: patent publication US20170267761A1 (H LUNDBECK A S, published 2017)

T1: Sortilin SORTECD_HIS (human, UniProt Q99523 78-755)
T1 construct: also called Sortilin-ECD-His; HIS-tagged Sortilin ECD
T1 sequence: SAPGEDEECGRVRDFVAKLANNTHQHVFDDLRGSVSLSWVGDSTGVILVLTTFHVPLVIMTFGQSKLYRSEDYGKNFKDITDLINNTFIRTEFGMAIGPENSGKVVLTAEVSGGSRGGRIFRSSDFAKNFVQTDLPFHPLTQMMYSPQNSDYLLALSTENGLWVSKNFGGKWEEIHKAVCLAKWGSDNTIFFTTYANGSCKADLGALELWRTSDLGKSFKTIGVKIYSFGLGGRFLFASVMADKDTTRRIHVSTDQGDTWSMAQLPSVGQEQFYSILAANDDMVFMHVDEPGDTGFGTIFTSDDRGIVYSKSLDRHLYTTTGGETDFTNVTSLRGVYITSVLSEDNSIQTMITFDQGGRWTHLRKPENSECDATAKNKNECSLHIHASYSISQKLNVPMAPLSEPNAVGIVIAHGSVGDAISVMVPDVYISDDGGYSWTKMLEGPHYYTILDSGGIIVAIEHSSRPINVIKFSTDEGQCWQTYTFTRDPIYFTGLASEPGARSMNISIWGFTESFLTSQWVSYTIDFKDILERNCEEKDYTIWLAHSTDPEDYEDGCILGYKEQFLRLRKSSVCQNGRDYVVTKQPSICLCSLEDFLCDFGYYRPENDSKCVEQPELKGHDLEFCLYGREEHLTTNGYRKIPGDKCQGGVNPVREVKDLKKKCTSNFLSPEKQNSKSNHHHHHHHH

B1: 1289 (antibody, V domains shown)
VH: EVQLLESGGGLVQPGGSLRLSCAASGFTFSSFAMSWVRQAPGKGLEWVSAISGSGGSTYYADSVKGRFTISRDNSKNTLSLQMNSLRAEDTAVYYCATPITLVRGVGAFDIWGQGTMVTVSS
VL: not shown
notes: the sheets print 1289 only, the text names its one 1289 antibody 1289-02; also called IgG1-6003-1289; Antibody 1289-02
B2: 1320 (antibody, V domains shown)
VH: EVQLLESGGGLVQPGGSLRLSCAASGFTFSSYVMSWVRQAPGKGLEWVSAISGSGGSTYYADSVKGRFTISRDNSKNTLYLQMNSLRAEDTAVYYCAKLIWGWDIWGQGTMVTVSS
VL: EIVLTQSPATLSLSPGERATLSCRASQSVSSYLAWYQQRPGQAPRLLIYDASNRATGIPARFSGSGSGTDFTLSISSLEPEDFAVYYCQQRTNWSITFGQGTRLEIK
notes: also called Antibody 1320; Ab 1320

Target: T1, Sortilin SORTECD_HIS
Experiment: HTRF, displacement of PGRN from His-tagged Sortilin ECD
Experimental: Dose-response evaluation of antibodies was performed with ten concentrations covering 50 pM to 1 μM in a 3-fold dilution curve. The half-maximal inhibitory concentration (IC50) values were calculated by non-linear regression using sigmoidal concentration response (variable slope) in XLfit 4 (IDBS, UK).
Experiments were performed in assay buffer (50 mM Phosphate, pH 7.0, 0.1% BSA) in a total volume of 20 μl in a Greiner 384 well, white, low volume microtiter plate, (784075, Greiner).

Row | Binder | % inh highest conc [%]
1 | B1 | 98
2 | B2 | 75
